# Test results taken from the supplement of paper PMC12042874.
# ± gives the uncertainty stated by the source.
# Assay: amyloid nucleation score (Sup35N fusion, yeast selection) (log enrichment); library NNK1; higher = more nucleation; inactive = no reads after selection
# Procedure, shortened: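 On medium lacking adenine and uracil, psi-negative yeast expressing peptides of 20 random codons fused to Sup35N were grown 7 days at 30°C after a 24-hour induction with 100 μM copper sulfate. Illumina sequencing of input and output plasmid inserts gave the reads, and sequences under 100 input reads were excluded. The nucleation score is the DiMSum log enrichment of output over input reads, centred on the mode score of non-aggregating sequences.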
row,Substance,amyloid nucleation score
1,ESMWVGLKINAVSNYR,0.3 ± 0.55
2,ESVDGTSHAVGIMNGRLKID,1.93 ± 0.1
3,EVEQVHLFSAVINSWCGDVF,0.575 ± 0.41
4,EVFDDCGGLMNYM,inactive
5,EVFNEKSVSLRGWNIHGNFC,0.03 ± 0.94
6,EVMPPLKLPRHFEEIRAEAG,-0.184 ± 0.51
7,EVRTEMIHCNLLTMRFCVLA,0.047 ± 0.64
8,EWTSAWW,-0.355 ± 0.36
9,EWVLFDAHAGRLVVPEH,-0.995 ± 1
10,EYGVGDKVIWDDMI,-0.151 ± 0.27
11,EYIMYYWIRIVYFVINGYLV,0.534 ± 0.36
12,EYNGCYFPRIM,0.628 ± 0.66
13,EYNSFWTVVSMILTVKWLSG,0.502 ± 0.24
14,FADNWLCKIRYSCGISLSKY,-0.739 ± 0.39
15,FAFRRSI,0.332 ± 0.9
16,FANFIAVMVTGTILF,inactive
17,FANLDSMNLIGKGFSMNYAL,-0.614 ± 0.97
18,FAQMWSLALRISVRNVISQF,5.954 ± 0.047
19,FASILVFQNGSIATCAINWV,0.694 ± 0.84
20,FATIVFVVKNENFMNADTLR,5.68 ± 0.08
21,FATMGSKKCSGARHSKRGSC,-0.26 ± 0.34
22,FAVINSPNKAGNRITRLGTY,0.681 ± 0.47

row,Substance,amyloid nucleation score
1,FAYEAWLMR,-0.077 ± 0.27
2,FAYKVLTLMNKPEGKVQSDV,-1.41 ± 2.4
3,FCARGRNRPN,1.04 ± 0.5
4,FCEDKNRRSSPSIWQNNCKM,0.829 ± 0.16
5,FCFLGRCEQHYYLEVHNGSE,-0.1 ± 0.49
6,FCLFGRLVTFLAVKMYVNCE,-0.529 ± 0.3
7,FCMTMRSARCGHLSMYCCFQ,1.8 ± 0.4
8,FCNNAPRQEWPILN,-1.31 ± 0.49
9,FCRRGSWVEPLLTCRYAMEA,-0.155 ± 0.64
10,FCSLLHPFTWYLSEHSMGLG,0.541 ± 0.57
11,FCTLALHNTI,1.24 ± 0.64
12,FCWHAFLSVTRFGRKIFFRF,0.426 ± 0.35
13,FCWLSMRAIRISSS,0.531 ± 0.44
14,FCYIHGILGRSVEYDDFCLL,0.184 ± 0.36
15,FDIIK,-0.358 ± 1.4
16,FDLRLRWRVA,0.295 ± 0.27
17,FDMCSGISGD,0.839 ± 0.36
18,FDNTGDCTNFYQLSDWSP,1.05 ± 0.22
19,FDSQDSISFGDGTFKSVWPM,0.177 ± 0.31
20,FDVIGSCVGDQWTAGMDWTL,0.429 ± 0.51
21,FDVYFSVPFFTLLYNDPKWF,2.35 ± 0.12
22,FDWGGTAYKKA,1.01 ± 0.97

row,Substance,amyloid nucleation score
1,FECCAVLLYMGRVNACRVCC,-0.281 ± 0.44
2,FEDEPGVSFWNSGGFK,-1.07 ± 0.62
3,FEDGTCALR,-0.059 ± 0.62
4,FEKTIHFV,0.43 ± 0.36
5,FELGLNCCFLGLVVYAQVNA,inactive
6,FFAGSQIFIHRSLEWI,1.68 ± 0.17
7,FFCERVLPVRVVC,1.06 ± 0.76
8,FFFALFFQRSTTRGWLSGQL,0.91 ± 0.62
9,FFGCCSRGARIDHVSRNHLL,0.185 ± 0.52
10,FFGHAEDFLYMIRVHAGNNL,-0.379 ± 0.41
11,FFGLFQLETWA,0.02 ± 0.37
12,FFGMLDPSTER,-0.73 ± 0.36
13,FFINQRDLLS,-0.084 ± 0.46
14,FFLMISKLAKWKGVARKTAL,-0.937 ± 2.1
15,FFLMQYILYYKKQSDMFVSL,-0.912 ± 1.7
16,FFLVRMCKSRDVTVTVGGSH,1.53 ± 0.14
17,FFRIACL,-0.704 ± 0.45
18,FFRIARCHLEDRWVMIAGVL,0.118 ± 0.68
19,FFRRS,0.924 ± 0.26
20,FFSMSSVTNKFSTSCRLNHS,3.18 ± 0.099
21,FFSPSNKNYKR,-0.215 ± 0.35
22,FFSYRDSISVKR,-0.449 ± 0.75

row,Substance,amyloid nucleation score
1,FFVVVRAHIDPR,0.188 ± 0.5
2,FFYNLFDILFFSFFRILSII,inactive
3,FGANHCKRSNGK,0.233 ± 0.22
4,FGDSFLSYGHMLIFFWYMTM,1.21 ± 0.64
5,FGHYALRANILLTPITKGMS,0.892 ± 0.56
6,FGIPAHNLLCYGCFLNWILV,inactive
7,FGLEK,1.25 ± 0.64
8,FGLYYLSNSEFMYVDRFHLG,-0.575 ± 0.38
9,FGNRELFLYFVCVKRDILVG,-1.23 ± 0.64
10,FGQCSSLVLT,inactive
11,FGRGHGLTGR,0.25 ± 0.63
12,FGRVRCLESEICSCGFFVDE,3.03 ± 0.15
13,FHDLGSKCYSMRGTADCFSR,0.347 ± 0.72
14,FHPKFWCNRFS,-0.442 ± 0.72
15,FHTRVKEWVGPAFLGSANLG,0.25 ± 0.5
16,FIEHTYVEEG,0.19 ± 0.23
17,FIHALLSNYVSIIFSNDRIC,2.31 ± 0.59
18,FIIISACSWLLSNWKTSGST,6.974 ± 0.056
19,FIIPDRVRFLKGMTSFVNSS,-0.349 ± 1
20,FILPLCMGVLLSAIETLGTC,1.09 ± 0.81
